Values quoted from earlier work in publication PMC7023894.
pKd: −log10 of the molar value.

Biological target: Ezrin FERM (Homo sapiens) (UniProt P15311)
Chain of UniProt P15311 (P15311 1-299): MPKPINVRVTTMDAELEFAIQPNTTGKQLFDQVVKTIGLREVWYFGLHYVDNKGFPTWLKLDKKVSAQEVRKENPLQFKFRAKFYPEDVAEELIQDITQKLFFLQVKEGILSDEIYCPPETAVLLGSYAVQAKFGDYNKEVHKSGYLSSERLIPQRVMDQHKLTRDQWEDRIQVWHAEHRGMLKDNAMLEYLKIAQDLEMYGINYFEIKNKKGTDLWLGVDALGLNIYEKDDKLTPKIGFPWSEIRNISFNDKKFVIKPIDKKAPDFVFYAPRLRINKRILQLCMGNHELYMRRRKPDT

## Transgelin-2 CLR region (from UniProt P37802)
  pKd: 7.13
